Laboratory results published in publication PMC7335327.
Values belong to the substance of their own block, whether it stands above or below them.

Experiments:
[1] = molecular target: biotinylated clamp loader complex ^bioχψτ3δδ’ (Escherichia coli K12) (UniProt P28905); experiment: SPR
[2] = molecular target: DnaB (Escherichia coli) (UniProt P0ACB0); conditions: cited from earlier work
[3] = molecular target: DnaB^F102C (Escherichia coli K12) (UniProt P0ACB0)
[4] = molecular target: DnaB helicase, wild type (DnaB^wt) (Escherichia coli K12) (UniProt P0ACB0)
[5] = molecular target: DnaB^F102C (Escherichia coli K12) (UniProt P0ACB0); experiment: cross-linking

Kd [1]: 2.6 nM
Substance: DnaB^wt•DnaGC complex (from UniProt P0ACB0 1-471)

Substance: DnaG (from UniProt P0ABS5)
Kd [2]: 2800 nM

fold less efficient interaction than with wild-type DnaB [3]: 200 fold
Substance: DnaGC, C-terminal helicase-binding domain of DnaG primase (domain or fragment)

fold weaker interaction than wild-type DnaGC [4]: 30 fold | disulfide crosslinking efficiency [5]: 100%
Substance: DnaGC^R568C/C492L (domain or fragment)
